Here are results for 2 proteins from patent US20260103686A1, “MICROBIAL STRAIN, PROTEIN, AND METHOD FOR PRODUCING GALLIC ACID USING MICROBIAL STRAIN OR PROTEIN” (UNIVERSITY OF TSUKUBA, priority 2022, published 2026).

Assay in all cases: purified protein, by the assay type
Substrate in series [1]: O=C(O)c1ccc(O)cc1
Particulars: other: pHBA substrate, 200 µM NADPH, 10 µM FAD, pH 7.9, 25° C., 340 nm.

Substrate in series [2]: O=C(O)c1ccc(O)c(O)c1
The format is biochemical, Hylemonella gracilis. Particulars: other: PCA substrate, 200 µM NADPH, 10 µM FAD, pH 7.9, 25° C., 340 nm.
Experimental: (§1) The cell-free extracts were subjected to a HisTrap HP column (GE healthcare) which was equilibrated with an equilibration buffer (20 mM Tris-HCl buffer (pH 7.9), 20 mM imidazole), and then fractions eluted with an eluent (20 mM Tris-HCl buffer (pH 7.9), 500 mM imidazole) were collected.
The protein concentrations of the purified enzyme liquids were measured using Bio-Rad Protein Assay Dye Reagent Concentrate (Bio-Rad, USA), and the purified enzyme liquids were diluted to 1 of mg/mL with a buffer. Thus, purified enzyme liquids protocatechuic acid 5-hydroxylases, HgPobA, HyPobA, PoPobA, HgPobA-TY and PaPobA, were prepared.
Using the purified enzyme liquids of HgPobA, HgPobA-TY, PoPobA, HyPobA and PaPobA described above, a reaction kinetic analysis was conducted.

Substrate in series [3]: O=C(O)c1ccc(O)c(O)c1
Experimental: as §1
The protein concentrations of the purified enzyme liquids were measured using Bio-Rad Protein Assay Dye Reagent Concentrate (Bio-Rad, USA), and the purified enzyme liquids were diluted to 1 of mg/mL with a buffer.
The note with it: other: PCA substrate, 200 µM NADPH, 10 µM FAD, pH 7.9, 25° C., 340 nm.

B1: Hylemonella gracilis-derived PobA (HgPobA), protocatechuic acid 5-hydroxylase, wild type, SEQ ID NO: 20 (Hylemonella gracilis ATCC 19624) (protein)
chain: MSYPTRTQVAIIGAGPSGLMLGALLHKAGIDTVVLERQSGDYVLGRIRAGVLEQVTMDLMDEIGVGARMHQEGLVHGGFDMLFQGQRHRIDMNRLTGGQNVMVYGQTEVTRDLMDARQQAGLTTIYEAANVAIHDFGSGKPRVTYEKDGKTHELQCDFIAGCDGFHGVCRDTVKKSASASAIREYEKVYNFGWLGLLSDTPPVHHELIYVNSERGFALCSQRSATRSRYYLQVPLTDKVEQWSDQAFWDELKLRLDPQAREHLVTGPSIEKSIAPLRSFVTEPLRFGRLFLAGDAGHIVPPTGAKGLNLAATDVKYLSAALTEFYQGKSEAGINHYSERCLKRIWRAERFSWWFTSLMHRFPENGEIGQKLQEAELDYIVHSETGARSVAENYVGLPLDFGA
On to B1, for which, in series [1], the Km came to 35 µM, the turnover number (kcat) was found to be 5.6 s⁻¹ and the specificity constant (kcat/Km) worked out at 160000 M⁻¹ s⁻¹. In addition, in series [2], the Michaelis constant (Km) was 260 µM, the kcat was 0.74 s⁻¹ and the kcat/Km came to 2800 M⁻¹ s⁻¹.

B2: Hylemonella gracilis-derived PobA (HgPobA, SEQ ID NO: 20) variant HgPobA-TY, T302A/Y393F (gene SEQ ID NO: 37) (Hylemonella gracilis ATCC 19624; T302A/Y393F) (protein)
chain: MSYPTRTQVAIIGAGPSGLMLGALLHKAGIDTVVLERQSGDYVLGRIRAGVLEQVTMDLMDEIGVGARMHQEGLVHGGFDMLFQGQRHRIDMNRLTGGQNVMVYGQTEVTRDLMDARQQAGLTTIYEAANVAIHDFGSGKPRVTYEKDGKTHELQCDFIAGCDGFHGVCRDTVKKSASASAIREYEKVYNFGWLGLLSDTPPVHHELIYVNSERGFALCSQRSATRSRYYLQVPLTDKVEQWSDQAFWDELKLRLDPQAREHLVTGPSIEKSIAPLRSFVTEPLRFGRLFLAGDAGHIVPPAGAKGLNLAATDVKYLSAALTEFYQGKSEAGINHYSERCLKRIWRAERFSWWFTSLMHRFPENGEIGQKLQEAELDYIVHSETGARSVAENFVGLPLDFGA
B2: the Km in series [3] was determined as 41 µM. In series [1], the Km was found to be 34 µM, the catalytic constant (kcat) is 3.1 s⁻¹ and the catalytic efficiency (kcat/Km) was determined as 91000 M⁻¹ s⁻¹.
